Test results as given in patent publication US20070066551.

Columns and labels:
[1] = target: IL-23 (full length) (Homo sapiens) (UniProt Q9NPF7+P29460); test: filter; conditions: dRmY, DPBS with Ca/Mg, BSA, RT
[2] = tested on: IgE (Homo sapiens), P01854-1; test: filter; conditions: DPBS with Ca/Mg, BSA
Chain of IgE (Homo sapiens), P01854-1 (P01854 other isoform, or with tags, fused parts or gaps): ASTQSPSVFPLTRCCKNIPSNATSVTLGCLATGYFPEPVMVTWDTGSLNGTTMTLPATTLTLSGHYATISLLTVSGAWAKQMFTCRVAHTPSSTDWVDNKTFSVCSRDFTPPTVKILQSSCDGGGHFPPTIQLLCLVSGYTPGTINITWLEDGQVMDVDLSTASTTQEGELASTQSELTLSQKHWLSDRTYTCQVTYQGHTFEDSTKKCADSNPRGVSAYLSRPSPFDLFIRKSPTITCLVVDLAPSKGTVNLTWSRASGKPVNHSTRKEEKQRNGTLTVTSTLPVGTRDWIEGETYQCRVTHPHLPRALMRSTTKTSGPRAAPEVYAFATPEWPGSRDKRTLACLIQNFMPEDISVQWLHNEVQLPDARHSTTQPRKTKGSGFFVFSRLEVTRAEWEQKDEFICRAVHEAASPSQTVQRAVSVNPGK

Chain of IL-23 (full length) (Homo sapiens) (Q9NPF7 20-189, chain 1 of 2): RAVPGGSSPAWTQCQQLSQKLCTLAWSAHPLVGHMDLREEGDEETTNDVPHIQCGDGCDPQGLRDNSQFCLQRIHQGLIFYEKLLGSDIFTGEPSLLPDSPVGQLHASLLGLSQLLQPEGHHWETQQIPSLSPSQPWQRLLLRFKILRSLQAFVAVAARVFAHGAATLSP
Chain of IL-23 (full length) (Homo sapiens) (P29460 23-328, chain 2 of 2): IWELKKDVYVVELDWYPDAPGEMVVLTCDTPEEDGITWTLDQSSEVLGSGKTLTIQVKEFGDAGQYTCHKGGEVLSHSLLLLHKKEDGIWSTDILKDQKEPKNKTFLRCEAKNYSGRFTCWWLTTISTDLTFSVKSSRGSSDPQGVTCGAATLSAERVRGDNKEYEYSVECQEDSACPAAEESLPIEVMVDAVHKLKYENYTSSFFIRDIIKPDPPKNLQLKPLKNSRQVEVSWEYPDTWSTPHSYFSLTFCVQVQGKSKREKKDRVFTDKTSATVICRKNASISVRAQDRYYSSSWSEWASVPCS

ACAGGCAAGUAANUGGGGAGUGCGGGCGGGGUGU [ARC1683]
Kd ([1]; 2'-OMe inosine for 2nd mU, 3'-idT (last t of SEQ), parent 9.8 nM): 4.8 nM

ACAGGCAAGUAAUUGGGGAGUGCGGGCGGGGUGN [ARC1702]
Kd ([1]; 2'-OMe inosine for last mU, 3'-idT (last t of SEQ), parent 15 nM): 10 nM

ACAGGCAAGUAAUUGGGGAGUGCGGGCGGGGUGU [ARC1648]
Kd ([1]; dI at 1st dA (position 1) [1], parent 13 nM): 12 nM

ACAGGCAAGUAAUUGGGGAGUGCGGGCGGGGUGU [ARC1650]
Kd ([1]; dI at 3rd dA (position 7) [7], parent 13 nM): 34 nM

ACAGGCAAGUAAUUGGGGAGUGCGGGCGGGGUGU [ARC1653]
Kd ([1]; dI at 6th dA (position 12) [12], parent 13 nM): 25 nM

AGCCUGGGGACCCAUGGGGGGCU [ARC445]
Kd ([2]; 2'-deoxy purines, 2'-OMe pyrimidines (dRmY), RT, other runs 12.6 nM (Table 10), with ssDNA and tRNA 14.6 (Table 8), 20 (Table 12), 8.5, 27 and 13 (Table 13)): 3 nM

AGCCUGGGGACCCAUGGGGGGCU [ARC584]
Kd ([2]; dRmY, PS between 16 and 17, RT, parent 12.6 nM): 6.9 nM

AGCCUGGGGACCCAUGGGGGGCU [ARC588]
Kd ([2]; dRmY, PS between 20 and 21, RT, parent 12.6 nM): 5.3 nM

AGCCUGGGGACCCAUGGGGGGCU [ARC597]
Kd ([2]; dRmY, 2'-deoxy-5mC at 3, ssDNA, tRNA, parent 20 nM, other run 16 nM (Table 13, parent 8.5 nM)): 21.5 nM

AGCCUGGGGACCCAUGGGGGGCU [ARC599]
Kd ([2]; dRmY, 2'-deoxy-5mC at 11, ssDNA, tRNA, parent 20 nM, other run 10.4 nM (Table 13, parent 8.5 nM)): 20.5 nM

AGCCUGGGGACCCAUGGGGGGCU [ARC602]
Kd ([2]; dRmY, 2'-deoxy-5mC at 22, ssDNA, tRNA, parent 20 nM, other run 9 nM (Table 13, parent 8.5 nM)): 26 nM

AGCCUGGGGACCCAUGGGGGGCU [ARC608]
Kd ([2]; dRmY, dC in place of sixth mC (position 22, per description; printed sequence shows mC), ssDNA, tRNA, RT, parent 14.6 nM): 7.9 nM

AGCCUGGGGACCCAUGGGGGGCU [ARC702]
Kd ([2]; dRmY, PS between 16 and 17, 20 and 21, RT, parent 12.6 nM): 2.6 nM

AGCCUGGGGACCCAUGGGGGGCU [ARC751]
Kd ([2]; dRmY, 2'-deoxy-5mC at 3 and 22, ssDNA, tRNA, parent 20 nM): 15 nM

AGCCUGGGGACCCAUGGGGGGCU [ARC753]
Kd ([2]; dRmY, 2'-deoxy-5mC at 11 and 22, ssDNA, tRNA, parent 20 nM): 15 nM

AGCCUGGGGACCCAUGGGGGGCU [ARC756]
Kd ([2]; dRmY, 2'-deoxy-5mC at 3, 11 and 22, ssDNA, tRNA, parent 20 nM): 14 nM

AGCCUGGGGACCCAUGGGGGGCU [ARC767]
Kd ([2]; dRmY, PS between 12 and 13, 16 and 17, 20 and 21, RT, parent 12.6 nM): 2.7 nM

AGCCUGGGGACCCAUGGGGGGCU [ARC768]
Kd ([2]; dRmY, PS between 13 and 14, 16 and 17, 20 and 21, RT, parent 12.6 nM): 3.5 nM

AGCCUGGGGACCCAUGGGGGGCU [ARC914]
Kd ([2]; dRmY, 2'-deoxy-5mC at 3, dC at 22, ssDNA, tRNA, parent 27 nM): 11.9 nM

AGCCUGGGGACCCAUGGGGGGCU [ARC915]
Kd ([2]; dRmY, 2'-deoxy-5mC at 11, dC at 22, ssDNA, tRNA, parent 27 nM): 16.9 nM

AGCCUGGGGACCCAUGGGGGGCU [ARC916]
Kd ([2]; dRmY, 2'-deoxy-5mC at 3, dC at 12, ssDNA, tRNA, parent 27 nM): 13.7 nM

AGCCUGGGGACCCAUGGGGGGCU [ARC918]
Kd ([2]; dRmY, 2'-deoxy-5mC at 22, dC at 12, ssDNA, tRNA, parent 27 nM): 14.6 nM

AGCCUGGGGACCCAUGGGGGGCU [ARC920]
Kd ([2]; dRmY, 2'-deoxy-5mC at 3 and 22, dC at 12, ssDNA, tRNA, parent 27 nM): 12.8 nM

AGCCUGGGGACCCAUGGGGGGCU [ARC921]
Kd ([2]; dRmY, 2'-deoxy-5mC at 11 and 22, dC at 12, ssDNA, tRNA, parent 13 nM): 8.5 nM

AGCCUGGGGACCCAUGGGGGGCU [ARC925]
Kd ([2]; dRmY, 2'-deoxy-5mC at 3, dC at 12 and 22, ssDNA, tRNA, parent 13 nM): 8.1 nM

AGCCUGGGGACCCAUGGGGGGCU [ARC926]
Kd ([2]; dRmY, 2'-deoxy-5mC at 11, dC at 12 and 22, ssDNA, tRNA, parent 13 nM): 5.5 nM

AGCCUGGGGACCCAUGGGGGGCU [ARC1335]
Kd ([2]; ARC445 with 2'-OMe purines at 1, 2, 7, 10, 14, 17, other purines 2'-deoxy, 2'-OMe pyrimidines, 3'-idT (last t of SEQ), RT, other runs 15 nM (Table 9), 2.8 nM (Table 11)): 0.3 nM

AGCCUGGGGACCCAUGGGGGGCU [ARC1548]
Kd ([2]; as ARC1335 with dI at 2, 3'-idT [dI at 2 (parent base G), other modifications as ARC1335, 3'-idT], RT): 3.3 nM

AGCCUGGGGACCCAUGGGGGGCU [ARC1562]
Kd ([2]; as ARC1335 with dI at 16, 3'-idT [16], RT): 0.6 nM

AGCCUGGGGACCCAUGGGGGGCU [ARC1563]
Kd ([2]; as ARC1335 with dI at 17, 3'-idT [17], RT): 2.2 nM

AGCCUGGGGACCCAUGGGGGGCU [ARC1564]
Kd ([2]; as ARC1335 with dI at 18, 3'-idT [18], RT): 0.5 nM

AGCCUGGGGACCCAUGGGGGGCU [ARC1565]
Kd ([2]; as ARC1335 with dI at 19, 3'-idT [19], RT): 1.4 nM

AGCCUGGGGACCCAUGGGGGGCU [ARC1566]
Kd ([2]; as ARC1335 with dI at 20, 3'-idT [20], RT, other run 8 nM (Table 9, parent ARC1335 15 nM)): 0.1 nM

AGCCUGGGGACCCNUGGGGGGCU [ARC1560]
Kd ([2]; as ARC1335 with dI at 14, 3'-idT, RT, parent ARC1335 15 nM): 3 nM

AGCCUGGGGACCCNUGGGGNGCU [ARC1647]
Kd ([2]; as ARC1335 with dI at 14 and 20, 3'-idT, RT, parent ARC1335 15 nM): 1 nM

AGCCUGGGGACCCRUGGGGGGCU [ARC2047]
Kd ([2]; as ARC1335 with 2'-OMe-2-aminopurine at 14, 3'-idT, RT, parent 2.8 nM): 4.8 nM

AGCCUGGRGACCCAUGGGGGGCU [ARC2044]
Kd ([2]; as ARC1335 with 2'-deoxy-2-aminopurine at 8, 3'-idT, RT, parent 2.8 nM): 3.9 nM

AGCCUGGRGACCCRUGGGGGGCU [ARC2360]
Kd ([2]; as ARC1335 with 2'-deoxy-2-aminopurine at 8 and 2'-OMe-2-aminopurine at 14, 3'-idT, RT, parent 2.8 nM): 2.7 nM

RGCCUGGGGACCCAUGGGGGGCU [ARC2040]
Kd ([2]; as ARC1335 with 2'-OMe-2-aminopurine at 1, 3'-idT, RT, parent 2.8 nM): 18.7 nM

RGCCUGGRGACCCRUGGGGGGCU [ARC2361]
Kd ([2]; as ARC1335 with 2'-OMe-2-aminopurine at 1 and 14 and 2'-deoxy-2-aminopurine at 8, 3'-idT, RT, parent 2.8 nM): 0.8 nM
